Measured values as given in publication PMC11432991.

Test system: MexT-(His)6 (Pseudomonas poae PMA22)
Test: EMSA
Conditions: 10 mM MgCl2, 5.4-134.5 ng MexT, 1 nM probe, EMSA: 20 mM Tris-HCl pH 8, 150 mM KCl, 10 mM MgCl2, 10% glycerol, 2 mM beta-mercaptoethanol, 50 ug/mL BSA, 9 uL, 20 min room temperature, 5% PAGE in 0.5x TBE

Substance | binding signal (scale: fold of Pi affinity) | binding signal (fold higher affinity than Pa probe)
Pa promoter probe | 0.33 | –
Pi promoter probe | – | 3
